Literature values in patent publication US20220133873A1, “CANCER THERAPY” (Madison Vaccines Inc., priority 2019, published 2022).

Legend:
[1] = test system: advanced (metastatic) melanoma; details: 173 patients, 2 mg/kg or 10 mg/kg at 3-week intervals
[2] = intravenously or subcutaneously, doses 50 to 500 μg/m2/day

Substance | drug-related grade 3 or 4 adverse event reported in more than one patient [1] | overall response rate ([1]; irrespective of dose) [%] | tolerability [2]
pembrolizumab | Grade 3 fatigue | 26 | –
GM-CSF: Granulocyte-macrophage colony-stimulating factor, vaccine adjuvant | – | – | generally well tolerated
